# T1: recombinant human His-tagged FcγRIIa (R&D Systems #1330-CD-050) (human, UniProt P12318 36-218, limits assumed)
# T1 construct: Bought; also called CD32a; recombinant, soluble, human FcγRIIa
# T1 sequence (looked up): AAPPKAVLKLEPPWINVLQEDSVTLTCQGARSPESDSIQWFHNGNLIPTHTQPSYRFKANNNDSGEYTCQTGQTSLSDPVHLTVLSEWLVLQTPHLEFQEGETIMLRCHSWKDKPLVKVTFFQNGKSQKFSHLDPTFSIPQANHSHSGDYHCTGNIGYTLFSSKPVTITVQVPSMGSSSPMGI
# B1: CNTO 860 A330I/I332E (antibody, human IgG1, kappa)
# heavy: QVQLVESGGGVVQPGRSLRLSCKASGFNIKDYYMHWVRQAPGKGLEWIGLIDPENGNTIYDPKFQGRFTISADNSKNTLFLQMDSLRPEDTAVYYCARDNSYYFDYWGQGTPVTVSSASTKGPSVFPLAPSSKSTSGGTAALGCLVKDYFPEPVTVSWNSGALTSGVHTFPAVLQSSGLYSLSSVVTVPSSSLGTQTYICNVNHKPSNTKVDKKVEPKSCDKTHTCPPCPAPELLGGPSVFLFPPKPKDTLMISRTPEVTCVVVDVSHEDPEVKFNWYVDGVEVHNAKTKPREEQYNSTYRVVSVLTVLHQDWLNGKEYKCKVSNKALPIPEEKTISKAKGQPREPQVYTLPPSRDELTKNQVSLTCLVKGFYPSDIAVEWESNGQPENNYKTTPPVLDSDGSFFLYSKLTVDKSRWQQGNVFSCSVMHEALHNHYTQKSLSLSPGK
# light: DIQMTQSPSSLSASVGDRVTITCKASQDIRKYLNWYQQKPGKAPKLLIYYATSLADGVPSRFSGSGSGTDYTFTISSLQPEDIATYYCLQHGESPYTFGQGTKLEITRTVAAPSVFIFPPSDEQLKSGTASVVCLLNNFYPREAKVQWKVDNALQSGNSQESVTEQDSKDSTYSLSSTLTLSKADYEKHKVYACEVTHQGLSSPVTKSFNRGEC
# modifications: N-linked glycan at Asn297 of the heavy chain (fucose content depends on host cell, CHO or YB2/0); not carried by the letters
# notes: also called A330I/I332E double mutant; A330I/I332E variant; copies: 2 + 2
# Experiments:
# [1] = target: T1, recombinant human His-tagged FcγRIIa …; assay: AlphaScreen
# Experimental: FcγRIIa (CD32a) AlphaScreen—Nickel acceptor beads (Perkin Elmer #6760619C) were diluted 1:50 in assay buffer (PBS, pH 7.4, 4 mg/ml BSA, 0.01% Tween-20), and 27.5 μl were added to each well of a Nunc V-bottom polypropylene plate (VWR # 62409-108) (Powers G., Notebook 9006, pp. 169-175, 182-185). A 2.0 μg/ml solution of recombinant human His-tagged FcγRIIa (R&D Systems #1330-CD-050) was prepared in assay buffer and 27.5 μl added to each well of a separate Nunc V bottom polypropylene plate. Titrations of test Abs were prepared in the Nunc V bottom polypropylene plate starting at 30 μg/ml. A 2 μg/ml solution of biotinylated goat F(ab′)₂ anti-human IgG F(ab′)₂ (Jackson Immunoresearch #109-066-097) was prepared in assay buffer and 27.5 μl added to each well of another Nunc V bottom polypropylene plate. A 1:50 dilution of streptavidin donor beads (PerkinElmer # 6760002) was prepared in assay buffer and 27.5 μl added to each well of another Nunc V bottom polypropylene plate. A volume of 5 μl of each reagent was added to the corresponding quadrants of a low-volume, non-binding white 384-well plate (Corning # 3673) in the following order: acceptor beads, FcγRIIa, test Ab, biotinylated anti-human IgG F(ab′)₂, and streptavidin donor beads. The plates were incubated for 30 minutes with shaking and the O.D.s determined using an Envision plate reader.
# FcγRIIb (CD32b) AlphaScreen—The assay was performed as described above for FcγRIIa except that FcγRIIa was replaced with FcγRIIb (R&D Systems #1875-CD-050).
# [2] = target: FcγRIIIa on NK cells of human PBMC (human, UniProt P08637 17-254); assay: cell-based or functional assay
# Chain of FcγRIIIa on NK cells of human PBMC (P08637 17-254): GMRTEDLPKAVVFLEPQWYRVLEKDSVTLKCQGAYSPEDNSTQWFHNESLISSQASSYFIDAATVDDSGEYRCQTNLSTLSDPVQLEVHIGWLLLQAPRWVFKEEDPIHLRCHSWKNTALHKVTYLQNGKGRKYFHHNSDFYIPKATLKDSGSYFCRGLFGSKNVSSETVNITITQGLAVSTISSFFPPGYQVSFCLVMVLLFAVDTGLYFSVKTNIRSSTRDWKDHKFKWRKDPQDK
binder,measurement,setting,value
B1,"fold higher concentration than WT to give an OD signal of 200,000",[1],~20 fold
same,fold activity in the ADCC assays,[2],~10 fold
